Experimental data taken from PMC8357825, “Structural basis for Ca^2+ activation of the heteromeric PKD1L3/PKD2L1 channel” (Nature Communications, 2021).

B1: mouse PKD1L3-CTD (residues 1632–2151) (domain or fragment, UniProt Q2EG98 1632-2151, looked up)
chain: PIYTAPAMNNLAKPTRKAWKKQLSKLTGGTLVQILFLTLLMTTVYSAKDSSRFFLHRAIWKRFSHRFSEIKTVEDFYPWANGTLLPNLYGDYRGFITDGNSFLLGNVLIRQTRIPNDIFFPGSLHKQMKSPPQHQEDRENYGAGWVPPDTNITKVDSIWHYQNQESLGGYPIQGELATYSGGGYVVRLGRNHSAATRVLQHLEQRRWLDHCTKALFVEFTVFNANVNLLCAVTLILESSGVGTFLTSLQLDSLTSLQSSERGFAWIVSQVVYYLLVCYYAFIQGCRLKRQRLAFFTRKRNLLDTSIVLISFSILGLSMQSLSLLHKKMQQYHCDRDRFISFYEALRVNSAVTHLRGFLLLFATVRVWDLLRHHAQLQVINKTLSKAWDEVLGFILIIVVLLSSYAMTFNLLFGWSISDYQSFFRSIVTVVGLLMGTSKHKEVIALYPILGSLLVLSSIILMGLVIINLFVSAILIAFGKERKACEKEATLTDMLLQKLSSLLGIRLHQNPSEEHADNTGY
notes: PKD1L3, mouse, Uniprot Q2EG98, carboxy-terminal domain (TM6-TM11 = S1-S6; VSD, PMD and PD), residues 1632-2151; it is not clear whether each chain has both tags or one tag each; No tag removal is described; also called mPKD1L3 (residues 1632–2151); TRP-like domain; source: HEK293F, transiently co-transfected with mPKD2L1, purified (anti-Flag M2 resin, Strep-Tactin resin, SEC in GDN)
B2: mouse PKD2L1 (residues 64–629) (domain or fragment, UniProt A2A259 64-629, looked up)
chain: TLVSSCCLHICRSIRGLWGTTLTENTAENRELYVKTTLRELVVYIVFLVDICLLTYGMTSSSAYYYTKVMSELFLHTPSDSGVSFQTISSMSDFWDFAQGPLLDSLYWTKWYNNQSLGRGSHSFIYYENLLLGAPRLRQLRVRNDSCVVHEDFREDILNCYDVYSPDKEDQLPFGPQNGTAWTYHSQNELGGSSHWGRLTSYSGGGYYLDLPGSRQASAEALQGLQEGLWLDRGTRVVFIDFSVYNANINLFCILRLVVEFPATGGTIPSWQIRTVKLIRYVNNWDFFIVGCEVVFCVFIFYYVVEEILEIHLHRLRYLSSVWNILDLVVILLSIVAVGFHIFRTLEVNRLMGKLLQQPDTYADFEFLAFWQTQYNNMNAVNLFFAWIKIFKYISFNKTMTQLSSTLARCAKDILGFAIMFFIVFFAYAQLGYLLFGTQVENFSTFVKCIFTQFRIILGDFDYNAIDNANRILGPVYFVTYVFFVFFVLLNMFLAIINDTYSEVKEELAGQKDQLQLSDFLKQSYNKTLLRLRLRKERVSDVQKVLKGGEPEIQFEDFTSTLRELG
notes: PKD2L1, mouse, Uniprot A2A259, residues 64-629 (lacks the C-terminal coiled-coil domain); Three copies of this chain (I, II, III) stand with one PKD1L3-CTD in the heterotetramer; It is not clear whether each chain has both tags or one tag each; also called mPKD2L1 (residues 64–629); TRPP2; source: HEK293F, transiently co-transfected with mPKD1L3, purified (anti-Flag M2 resin, Strep-Tactin resin, …)

Legend:
Test in all cases: cryo-EM structure; co-expressed and co-purified PKD1L3-CTD/PKD2L1 complex in 20 mM HEPES pH 7.5, 150 mM NaCl, 0.01% GDN, 0.2% Fos-Choline-8 added; without (apo, 3.4 Å) and with 20 mM CaCl2 (Ca2+-loaded, 3.1 Å)
[1] = biological target: B2; conditions: both partners purified
[2] = biological target: the molecule itself
[3] = biological target: B1; conditions: both partners purified

binding result [1] | stoichiometry N [3] [PKD2L1 per PKD1L3] | Binder | binding result [2]
binds | – | B1 | –
– | 3 | B2 | binds
